Measurements taken from patent publication CN114437205A (DOMA MEDICINE TECH SUZHOU LIMITED COMPANY, dated 2022).

Biological target: SARS-CoV-2-S2 ECD-his (Acro, S2N-C52H5) (SARS-CoV-2, UniProt P0DTC2 686-1213)
Experiment: ELISA

B1: 抗体CT150 (antibody, V domains shown)
VH: QEQLVESGGGVVQPGRSLRLSCAASGFTFSSYAMHWVRQAPGEGLEWVALISYDGDNKYYADSVKGRFTISRDNSKTTLFLQMNSLRAEDTAVYYCARDRGSYFYGVDVWGQGATVTVSS
VL: DIQLTQSPSFLSASVGDRVTITCRASQDINSYLAWYQQKPGKAPKLLIYAASTLQSGVPSRFSGSGSGTEFTLTISSLQPEDFATYYCQQLNSYPIFTFGPGTKVDIK
- EC50: 8.18 ng/mL
